{"source": "paper PMC8470970", "about": "“A Novel L-Asparaginase from Hyperthermophilic Archaeon Thermococcus sibiricus: Heterologous Expression and Characterization for Biotechnology Application” (International Journal of Molecular Sciences, 2021)", "substrate": "NC(=O)C[C@H](N)C(=O)O", "test": "ammonia release by direct Nesslerization; Lineweaver-Burk plot", "assay_type": "biochemical, Thermococcus sibiricus", "details": "Tris-HCl 0.05 M, pH 9.0, 90 °C, printed substrate range 20-250 μM", "data": [{"protein": "TsA (L-asparaginase from Thermococcus sibiricus) (Thermococcus sibiricus MM 739) (protein, full-length, 331 residues, codon-optimized synthetic gene in pET-28a(+) NheI/SalI, E. coli BL21 (DE3); SP-Sepharose ion exchange) MKKLLIIGTGGTIASAKTEQGYKSVLKIDEILKLAKIKLENGYKIDSTNIMNIDSTLIHPEDWEIIAKEVFKALDDYDGIIITHGTDTLAYTASMLSFMIKNPNKPIVLTGSMLPITENGSDAPRNIRTAIKFAMEDVAGVFVAFMDKIMLGCRTSKVRTLGLNAFMSINYPDVAYVKGEKILYNIPKEKFQPNGSPELDTKYEPRVVVLRVTPGLGGEIIDAVLDAGYKGIVLEGYGAGGLPYRKSNLLSKIKEITPKIPVIMTTQALYDGVDMRKYEVGRKALETGIIPAKDMTKEATITKLMWALGHTKDVEKIREIMHTNYVNEIKS", "values": [{"measurement": "Km", "value": 2800, "unit": "µM"}]}]}
